Patent US20130115216A1

How the values were obtained:
[1] = target: HLA-A2 (HLA-A*0201) (human); experiment: assembly assay, HLA-A2 recovery from T2 cell lysate
[2] = target: HLA-A2 (HLA-A*0201) (human); experiment: assembly assay, HLA-A2 recovery from TAP-deficient cell lysate

## C1 (HIV-1 pol476-484) (peptide; other documents disagree on this pair)
[1]
  C50: 0.7 µM
[2]
  C50: 0.2 µM
